Measurements: patent US20240117034A1 (SHANGHAI JEMINCARE PHARMACEUTICAL, published 2024)

How the values were obtained:
[1] = target: human GARP/human latent TGF-β1 complex on recombinant cells (293F-hGARP/hTGF-β1, CHOK1-hGARP/hTGF-β1) (human) (UniProt Q14392); assay: flow cytometry on 293F-hGARP/hTGF-β1 clone 2D3
[2] = target: human GARP/human latent TGF-β1 complex on recombinant cells (293F-hGARP/hTGF-β1, CHOK1-hGARP/hTGF-β1) (human) (UniProt Q14392); assay: flow cytometry on 293F-hGARP/hTGF-β1 clone 2F4
[3] = target: T1, hGARP/hTGF-β1 complex (Kactus Biosystems, Cat. No.: GAR-HM4TG) (human, UniProt Q14392 20-627; P01137 30-390, limits assumed); assay: Octet RED96e (BLI), antibody captured on AHC sensor, complex in solution from 100 nM, 1:1 model
T1 construct: Bought soluble recombinant complex; also called antigen (hGARP/hTGF-β1 complex)

[4] = target: T2, human GARP/human latent TGF-β1 complex on recombinant cells (293F-hGARP/hTGF-β1, CHOK1-hGARP/hTGF-β1) (human, UniProt Q14392 20-662; P01137 30-390); assay: flow cytometry titration on 293F-hGARP/hTGF-β1 cells, Alexa 488 anti-mouse IgG secondary
T2 construct: whole, on cells; Both full-length proteins were co-expressed on 293F or CHOK1 cells; The host cell of each assay is named in the assay field; also called 293F-hGARP/hTGF-β1 complex; clones 2F4 and 2D3
Description: The cells were counted and centrifuged at 300 g for 5 min, the supernatant was discarded, the cell pellet was resuspended and washed with 1×PBS, then centrifuged at 300 g for 5 min, the supernatant was discarded, and then the cell pellet was resuspended with FACS buffer containing 2% FBS to adjust to a density of 1e6 cells/mL. The cells were plated at a density of 1e5 cells/well for a constant volume of 100 μL/well at 4° C. for 0.5 h, and centrifuged at 300 g for 5 min, and the supernatant was discarded. The antibody to be tested was prepared in FACS buffer containing 2% FBS with a starting concentration of 15 µg/mL, followed by serial dilution with a dilution factor of 1:5 in a total of 7 gradients, and then was added for a constant volume of 100 μL/well, with 0 μg/mL as a control, the dilution was pipetted and mixed thoroughly at 4° C. for 1 h, and centrifuged at 300 g for 5 min, and the supernatant was discarded. 1×PBS was added for a constant volume of 200 μL/well to resuspend and mix the cell pellet thoroughly, followed by centrifugation at 300 g for 5 min, the supernatant was discarded, and the steps were repeated twice. […] The cell pellet was resuspended in FACS buffer containing 2% FBS to read on a FACS machine. […]

[5] = target: T2, human GARP/human latent TGF-β1 complex …; assay: flow cytometry competition on 293F-hGARP/hTGF-β1 cells; the competitor is Alexa 488-labelled MHG8 at a fixed concentration; falling curve

T2 sequence (Q14392 20-662, chain 1 of 2): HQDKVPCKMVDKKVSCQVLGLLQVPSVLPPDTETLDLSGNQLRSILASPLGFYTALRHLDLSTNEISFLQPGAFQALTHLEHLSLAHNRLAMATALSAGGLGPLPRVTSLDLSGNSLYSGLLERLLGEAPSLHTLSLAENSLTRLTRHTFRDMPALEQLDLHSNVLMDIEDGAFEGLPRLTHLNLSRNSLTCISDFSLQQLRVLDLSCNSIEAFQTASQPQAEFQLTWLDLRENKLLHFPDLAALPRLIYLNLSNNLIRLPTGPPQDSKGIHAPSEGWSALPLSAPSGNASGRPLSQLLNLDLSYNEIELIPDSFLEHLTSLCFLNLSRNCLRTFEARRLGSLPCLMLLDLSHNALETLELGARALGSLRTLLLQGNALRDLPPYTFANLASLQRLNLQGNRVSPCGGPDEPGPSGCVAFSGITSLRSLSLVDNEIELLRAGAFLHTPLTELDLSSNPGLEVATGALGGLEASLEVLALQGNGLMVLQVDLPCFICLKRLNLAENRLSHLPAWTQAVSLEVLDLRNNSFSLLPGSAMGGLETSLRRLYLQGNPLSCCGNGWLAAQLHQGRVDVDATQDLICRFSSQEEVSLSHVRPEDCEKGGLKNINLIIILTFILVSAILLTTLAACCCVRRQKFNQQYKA
T2 sequence (P01137 30-390, chain 2 of 2): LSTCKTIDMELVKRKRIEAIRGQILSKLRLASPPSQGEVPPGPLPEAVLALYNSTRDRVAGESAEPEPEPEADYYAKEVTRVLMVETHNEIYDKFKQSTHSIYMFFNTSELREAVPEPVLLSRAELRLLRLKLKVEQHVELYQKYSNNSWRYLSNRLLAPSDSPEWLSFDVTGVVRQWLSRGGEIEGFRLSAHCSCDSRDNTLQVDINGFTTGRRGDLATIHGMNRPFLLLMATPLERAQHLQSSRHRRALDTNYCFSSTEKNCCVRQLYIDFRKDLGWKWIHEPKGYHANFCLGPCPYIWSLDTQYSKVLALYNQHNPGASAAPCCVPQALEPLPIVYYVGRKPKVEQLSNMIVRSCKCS
Sequence of human GARP/human latent TGF-β1 complex on recombinant cells (293F-hGARP/hTGF-β1, CHOK1-hGARP/hTGF-β1) (human) (Q14392 20-662, chain 1 of 2): as the sequence (Q14392 20-662, chain 1 of 2) above
Sequence of human GARP/human latent TGF-β1 complex on recombinant cells (293F-hGARP/hTGF-β1, CHOK1-hGARP/hTGF-β1) (human) (P01137 30-390, chain 2 of 2, further chain): as the sequence (P01137 30-390, chain 2 of 2) above
T1 sequence (Q14392 20-627 limits assumed, chain 1 of 2): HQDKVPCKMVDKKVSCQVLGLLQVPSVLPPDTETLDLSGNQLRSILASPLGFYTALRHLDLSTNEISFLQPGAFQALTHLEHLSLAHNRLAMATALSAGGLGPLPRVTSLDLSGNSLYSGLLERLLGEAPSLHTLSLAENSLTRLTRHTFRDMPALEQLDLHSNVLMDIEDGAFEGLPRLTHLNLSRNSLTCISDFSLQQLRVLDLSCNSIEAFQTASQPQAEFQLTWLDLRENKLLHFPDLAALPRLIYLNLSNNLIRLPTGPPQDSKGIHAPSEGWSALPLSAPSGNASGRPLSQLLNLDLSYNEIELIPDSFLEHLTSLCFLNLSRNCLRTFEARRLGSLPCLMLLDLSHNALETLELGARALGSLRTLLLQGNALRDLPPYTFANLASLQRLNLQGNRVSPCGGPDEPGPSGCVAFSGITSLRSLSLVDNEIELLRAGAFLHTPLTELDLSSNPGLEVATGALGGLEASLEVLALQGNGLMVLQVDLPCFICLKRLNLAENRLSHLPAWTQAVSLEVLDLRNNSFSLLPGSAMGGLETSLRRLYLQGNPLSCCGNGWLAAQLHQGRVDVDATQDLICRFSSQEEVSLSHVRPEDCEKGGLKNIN
T1 sequence (P01137 30-390 limits assumed, chain 2 of 2): as the sequence (P01137 30-390, chain 2 of 2) above

Molecule | Mean maximum fluorescence intensity (MFI) [1] | Mean maximum fluorescence intensity (MFI) [2] | Kd [3] | koff [3] | kon [3] | EC50 [4] | EC50 [5]
anti-human TGF-β1 antibody, Anti-LAP (TGF-β1) Antibody-APC (R&D Systems, FAB2463A) | 142000 MFI | 150000 MFI |  |  |  |  | 
MHG8 (anti-human GARP antibody) (antibody, V domains shown) VH: QVQLKESGPGLVAPSQSLSITCTVSGFSLTGYGINWVRQPPGKGLEWLGMIWSDGSTDYNSVLTSRLRISKDNSNSQVFLKMNSLQVDDTARYYCARDRNYYDYDGAMDYWGQGTSVTVSS VL: DIQVTQSSSYLSVSLGDRVTITCKASDHIKNWLAWYQQKPGIAPRLLVSGATSLEAGVPSRFSGSGSGKNFTLSITSLQTEDVATYYCQQYWSTPWTFGGGTTLEIR |  |  | 0.205 nM | 2.85e-05 s⁻¹ | 139000 M⁻¹ s⁻¹ | 0.12 µg/mL | 2.74 µg/mL
murine anti-human GARP monoclonal antibody 8H2D7B3 (antibody, V domains shown, Antibody purified from the hybridoma; It was detected with anti-mouse IgG, and mouse IgG1 served as isotype control; also called murine antibody 8H2D7B3) VH: QVQLQQSGAELVRPGSSVKLSCKASGYTLSNYWMYWVKQRPIQGLEWIGSIAPSDSETHYNQKFKDRATVTVDKSSRIVYMQLSSLTSEDSAVYFCARGGFGYGSSHWYFDVWGTGTTVTVSS VL: DIQMTQSSAYLSVSLGGRVTITCKASDHINKWLAWYQQKPGNAPRLLISGATSLETGIPSRFSGSGSGKDYTLSITGLQTEDVATYYCQQYWTTPYTFGGGTKLEIK |  |  |  |  |  | 0.108 µg/mL | 1.61 µg/mL

Results, then the molecule that gave them:

Mean maximum fluorescence intensity (MFI) [1] | Mean maximum fluorescence intensity (MFI) [2] | Kd [3] | koff [3] | kon [3] | EC50 [4] | EC50 [5] | Molecule
103 MFI | 90 MFI |  |  |  |  |  | Isotype control-APC (antibody)
103 MFI | 101 MFI |  |  |  |  |  | Isotype control-FITC (antibody)
6960 MFI | 8370 MFI |  |  |  |  |  | anti-human GARP antibody-FITC (Enzo life science, ALX-804-867FI-0100)
